Measured values from patent publication US12611443B2, “Methods and compositions related to therapeutic peptides for cancer therapy” (THE UNIVERSITY OF CHICAGO, priority 2018, dated 2026).
Entries after “also recorded” stand apart in the source; their conditions may differ.

Key:
[1] = system: cancer cells; test: CD95 protein overexpression in cancer cells, viability in absence of ELANE (calcein-AM); format: cell-based, human; details: for cancer cell death/toxicity on expression in the absence of ELANE: transient overexpression
Procedure: FIGS. 1A-1K. ELANE cleaves CD95 to selectively kill cancer cells. (A): Heatmap summary of ELANE's effects on survival, stress, and apoptosis pathways in cancer cells and healthy cells. (B-C): Cancer cells were treated with ELANE (100 nM) and CD95 cleavage was assessed by western blotting using anti-N-terminal (B) or anti-C-terminal antibodies (C). *, lower molecular weight CD95 fragment. (D): Cancer cells or non-cancer cells were transduced to overexpress CD95 proteins, and effects on ELANE-mediated apoptosis were quantified by ANXAS at 30 min. n=2/group. See FIG. 1I for transduction and CD95 over-expression. (E): Cleavage of recombinant human CD95 N-terminal (aa 1-173) or C-terminal (aa 212-335) proteins by ELANE was assessed by SDS-PAGE and Coomassie blue staining. (F): Bands from (E) were digested with trypsin and analyzed by mass spectrometry to identify putative ELANE cleavage sites (i.e., peptides with non-tryptic ends). Major non-tryptic peptides were quantified by ion chromatograms. (G): Schematic of ELANE cleavage sites in CD95. […] (H): Cleavage of recombinant peptides corresponding to aa 214-231 and aa 317-335 in CD95 by ELANE was monitored by mass spectrometry. (I): Cancer cells or non-cancer cells were treated with fluorescein-labeled ELANE for 10 min and uptake was visualized by immunofluorescence. (J): ELANE catalytic activity in cancer cell lysates following exposure to ELANE for 30 mins in the presence and absence of Dynasore (60 μM endocytosis inhibitor). Effect of Dynasore on cancer cell killing capability of ELANE (measured by calcein-AM). n=6/group. (K): Cancer cells or non-cancer cells were transduced to overexpress various CD95 proteins, and cell viability in the absence of ELANE was determined by calcein-AM. n=10/group. *, p<0.05 Student's t-test.
In vitro cell viability assays. […] Luminescence was measured using a Victor X3 luminometer (PerkinElmer).
CD95 overexpression studies. Polycistronic adenoviral vectors were prepared to express the human and mouse CD95 sequences followed by the Encephalomyocarditis virus (EMCV) internal ribosome entry site and dTomato sequence under the control of the cytomegalovirus (CMV) promoter (VectorBuilder). Human and murine cancer cells or normal or non-cancer cells were transduced to over-express full-length CD95, N-terminal CD95 (human: aa 1-209; mouse: aa 1-204), C-terminal CD95 (human: aa 212-335; mouse: aa 204-327), or C-terminal CD95 that mimicked ELANE cleavage at site 1 (human: aa 221-335), site 2 (human: aa 212-331), or both sites (aa 221-331). Cancer cells or normal or non-cancer cells were transduced with adenoviruses at an MOI of 50-250 depending on cell type, and expression of dTomato and CD95 (human: 558814; mouse, mouse: 565130, BD Biosciences) were confirmed by flow cytometry. A vector encoding GFP (Vector Builders) was used as a control.

[2] = system: MDA-MB-231 cells; test: Doxycycline-inducible Tet-on expression of C or C1-2 in MDA-MB-231 cells; format: cell-based, human
Procedure: (§1) FIG. 4 Inducible Expression System. Scheme of doxycycline inducible Tet-on system to express either C (aa. 157-335) or C1-2 (aa. 221-331). C1-2 (DD containing fragment) upon addition of doxycycline (both in vitro and in vivo).
(§2) FIG. 5 Confirmation of C1-2 expression and cancer cell selective killing. (A) Tet-on C or C1-2 transduced MDA-MB-231 cells were treated with 2 μg/mL doxycycline (2 μg/mL) for 24 h. Cell lysates were collected for western blot. Confirming the expression of C or C1-2 expression. (B) Tet-on C or C1-2 transduced MDA-MB-231 cells were treated with 0.2 or 2 μg/mL doxycycline for 72 h. Cell viability was measured by Calcein AM. […] (C) Tet-on C1-2 transduced MCF10A cells were treated with 2 μg/mL doxycycline. Cell viability was measured at various time points by Calcein AM.
FIG. 6 In vitro testing MDA-MB-231 cell death post C1-2 induction. (A) Various single colony of Tet-on C1-2 transduced MDA-MB-231 cells were treated with 2 μg/mL doxycycline (2 μg/mL) for 72 h. Cell viability was measured by Calcein AM. Different colonies have different susceptibility of death post C1-2 induction. (B) C1-2 expression of various single colony of Tet-on C1-2 transduced MDA-MB-231 cells post doxycycline treatment were measured by western blot (C), and the level at 24 h was correlated with % death (normalized by full length). […] (C) Immunoblot of C1-2 and full length (FL) CD95 expression for various colony.

[3] = system: MCF10A cells; test: Doxycycline-inducible Tet-on expression of C1-2 in MCF10A cells; format: cell-based; details: doxycycline 2 μg/mL
Procedure: as §1, §2

[4] = system: MDA-MB-231 tumors; test: In vivo testing of Tet-on C1-2 transduced MDA-MB-231 tumors; parameters: species or system nude mouse
Procedure: FIG. 7 In vivo testing MDA-MB-231 tumor regression post C1-2 induction. (A) Tumor weight. (B) Tumor cells (millions) count (post-ficoll gradient). (C) Percent immune cells in tumors (mouse CD45+) measurement by flow cytometry.
In Vivo testing. Mammary glands of a nude mouse model were injected with 2 million Tet-on C1-2 transduced MDA-MB-231 cells. Once tumors reach approximately 80 to 100 mm3 mice are feed either a doxycycline diet or are injected intraperitoneally with doxycycline (50 mg/ml) every 5 days to induce Tet-on system. Tumor growth is monitored. Tumors are isolated and digested on day 21 post doxycycline treatment and tumor weights are measured, tumor cell numbers are counted, and CD45+ cells are measured by flow cytometry.

B1: C1-2: hCD95 C-terminal peptide aa 221-331 mimicking ELANE cleavage at both sites; death domain containing fragment (protein)
chain: AINLSDVDLSKYITTIAGVMTLSQVKGFVRKNGVNEAKIDEIKNDNVQDTAEQKVQLLRNWHQLHGKKEAYDTLIKDLKKANLCTLAEKIQTIILKDITSDSENSNFRNEI
[1]; MDA-MB-231 cells
  killing mechanism induced by expression: induced the same killing mechanism as treating these cells with ELANE
[1]
  cancer cell death/toxicity on expression in the absence of ELANE: toxic
[1]; listed as aa. 221-331 of SEQ ID NO:1
  cancer cell death/toxicity on expression in the absence of ELANE: induced cancer cell death in the absence of ELANE
[2]; FIG. 5A-5C
  selective killing of cancer cells by expression: can selectively kill cancer cells
[2]; Tet-on MDA-MB-231, doxycycline 0.2 or 2 μg/mL, 72 h, Calcein AM
  cell death/apoptosis on doxycycline-induced expression: induction of cell death in MDA-MB-231 cells; also recorded: underwent apoptosis; also recorded: caused MDA-MB-231 cell death
[2]; different colonies of MDA-MB-231 cells
  correlation of expression level with extent of apoptosis/death: significantly and positively correlated; also recorded: correlates with MDA-MB-231 cell death
[3]
  cell death/apoptosis on doxycycline-induced expression: failed to induce apoptosis; also recorded: did not cause cell death
[4]; doxycycline IP or through the food
  tumor growth after doxycycline induction: induced MDA-MB-231 tumor regression; also recorded: lessened tumor growth
[4]; flow cytometry
  CD45+ immune cells in tumors: increased the number of CD45^+ immune cells in tumors
